{"source": "patent US12721795B2", "about": "“Personal dental care product for preventing demineralisation” (CREDENTIS AG, priority 2019, dated 2026)", "key": {"[1]": {"details": "cited from earlier work; for pH at which the peptide starts to undergo self-assembly: in solution"}, "[2]": {"assay": "Determination of fibres eluting from matrix (TEM of artificially chewed toffee-saliva)", "assay_type": "physicochemical", "details": "toffee with assembled P11-4 (35 mg/ml), 3 mL artificial saliva, artificial chew 5 min", "description": "Sample: • Place 1 toffee with or without assembled P11-4 (35 mg/ml) in artificial saliva 3 mL (cf. Example 2) • Artificial chew for 5 min in artificial mastication equipment. • Remove supernatant (saliva) Method TEM • Dilute sample (10 mg/mL) with H2O at a ratio of 1:63 • Place 1 μL of control solution on TEM-grid Sample • Place 20 μL of water on a parafilm • Place gently the TEM Grid with dark site facing upwards on the parafilm, close to the drop • Application of 10 μL sample on TEM carbon coated grids (hexagonal) • 10 min incubation • Remove unbound sample with a paper tissue • Put the grid into 3% Uranylacetate solution 20 ul • 40 sec incubation • Remove unbound Uranylacetate with a paper tissue • Wash the grid 2 times with distilled water • pipet 5 μL droplet on top of the grid and remove it • Dry it for 20 min at RT • Introduce sample into sample holder for TEM • Analyse @ 50 kV, Vacuum at least 9*10-6 hPa"}}, "note": "“Also recorded” adds a separate entry of the source."}
{"substance": "QQRFEWEFEQQ (self-assembling peptide P11-4)", "values": [{"measurement": "pH at which the peptide starts to undergo self-assembly", "setting": "[1]", "value": "about 7.5"}, {"measurement": "assembly state", "setting": "[1]; ionic strength corresponding to 150 mM NaCl, neutral pH (Carrick et al., 2007)", "value": "assembled"}, {"measurement": "assembled fibres of peptide in artificial saliva after mastication (TEM)", "setting": "[2]", "value": "distinct fibre bundle; also recorded: maintains its assembled form"}]}
{"substance": "terminally modified P11-4: peptide P11-4 that is N-terminally acetylated and C-terminally amidated with a NH2-group (Ac-QQRFEWEFEQQ-NH2)", "values": [{"measurement": "pH at which the peptide starts to undergo self-assembly", "setting": "[1]", "value": "about 7.5"}]}
